In patent publication US20240294650A1 (Alector, published 2024):
Blank lines part the entries; values can stand above or below the binder they belong to.

Columns and labels:
[1] = biological target: T1, mouse MerTK overexpressed on CHO cells (mouse, UniProt Q60805 19-994); test: FACS, CHO-muMerTK OE cells, 10 ug/ml
T1 construct: whole, on cells; also called CHO-muMerTK OE
T1 sequence (looked up): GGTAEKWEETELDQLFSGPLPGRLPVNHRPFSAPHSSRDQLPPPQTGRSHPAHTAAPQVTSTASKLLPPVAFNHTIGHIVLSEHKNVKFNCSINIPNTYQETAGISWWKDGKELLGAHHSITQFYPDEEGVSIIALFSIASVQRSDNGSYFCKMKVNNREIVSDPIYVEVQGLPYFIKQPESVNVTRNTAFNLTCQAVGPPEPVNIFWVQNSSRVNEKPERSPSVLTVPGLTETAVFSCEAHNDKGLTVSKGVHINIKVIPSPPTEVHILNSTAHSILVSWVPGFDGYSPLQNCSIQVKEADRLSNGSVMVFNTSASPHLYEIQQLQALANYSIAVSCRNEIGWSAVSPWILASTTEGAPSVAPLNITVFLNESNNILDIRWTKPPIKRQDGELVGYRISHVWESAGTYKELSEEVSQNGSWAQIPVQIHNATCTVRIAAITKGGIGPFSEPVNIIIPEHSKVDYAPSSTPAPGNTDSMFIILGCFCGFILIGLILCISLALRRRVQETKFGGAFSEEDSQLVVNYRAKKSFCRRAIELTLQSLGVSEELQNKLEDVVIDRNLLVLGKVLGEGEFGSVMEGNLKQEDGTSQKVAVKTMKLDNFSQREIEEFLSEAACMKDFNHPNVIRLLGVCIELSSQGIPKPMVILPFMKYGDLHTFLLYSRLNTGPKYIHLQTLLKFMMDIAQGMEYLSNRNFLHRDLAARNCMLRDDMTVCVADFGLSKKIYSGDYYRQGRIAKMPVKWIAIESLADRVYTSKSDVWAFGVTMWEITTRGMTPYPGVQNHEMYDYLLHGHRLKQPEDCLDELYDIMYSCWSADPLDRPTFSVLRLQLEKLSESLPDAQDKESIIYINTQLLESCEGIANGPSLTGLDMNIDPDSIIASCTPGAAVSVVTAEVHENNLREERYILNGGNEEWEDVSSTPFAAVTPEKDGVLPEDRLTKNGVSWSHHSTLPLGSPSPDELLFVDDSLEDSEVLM
Description: (§1) To determine whether recombinant anti-human MerTK antibodies of the present disclosure bind to human MerTK endogenously expressed on SK-MEL-5 cells and CHO cells overexpressing mouse MerTK (CHO-muMerTK OE cells), as compared to A375 and parental CHO cells as negative controls, the following experiments were performed. SK-MEL-5 cells, A375 cells, CHO-muMerTK OE cells, and CHO parental cells were plated at 100,000 cells/well. Anti-MerTK antibodies were added to the cells at 10 μg/ml. After 60 minutes on ice, cells were washed and then stained with PE-conjugated goat anti-human IgG antibody (Southern Biotech Cat #2040-09, Birmingham, AL) in the presence of Fc block solution on ice for 30 minutes, and then washed twice with cold FACS buffer (2% FBS in PBS). Mouse anti-human MerTK-PE conjugated (Biolegend, Clone 590H11G1E3) or anti-mouse MerTK-PE conjugated (ThermoFisher, Clone DS5MMER) antibodies were used as positive controls. Stained cells were acquired on a BD FACS Canto II cytometer and the mean fluorescence intensity (MFI) was calculated with FlowJo.

[2] = biological target: T2, Full Axl (ECD domain of human Axl) (human, UniProt P30530 26-451); test: SPR (data not shown)
T2 construct: also called human Axl ECD
T2 sequence: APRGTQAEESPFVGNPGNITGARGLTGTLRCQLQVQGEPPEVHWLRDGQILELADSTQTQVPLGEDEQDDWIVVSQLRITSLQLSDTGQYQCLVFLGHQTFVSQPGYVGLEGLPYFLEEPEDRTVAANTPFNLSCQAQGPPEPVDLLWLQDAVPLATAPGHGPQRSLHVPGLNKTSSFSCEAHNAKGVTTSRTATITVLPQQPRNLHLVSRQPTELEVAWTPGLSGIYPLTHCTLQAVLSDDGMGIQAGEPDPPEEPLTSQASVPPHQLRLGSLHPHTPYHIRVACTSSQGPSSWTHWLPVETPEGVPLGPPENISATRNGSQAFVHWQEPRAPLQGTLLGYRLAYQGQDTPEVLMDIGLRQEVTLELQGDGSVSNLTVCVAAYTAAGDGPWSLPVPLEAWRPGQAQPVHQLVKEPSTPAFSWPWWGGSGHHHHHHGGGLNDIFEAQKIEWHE
Description: (§2) Binding of anti-MerTK antibodies of the present disclosure to these domain-swapped chimera or deletion mutants was tested by Surface Plasmon Resonance (SPR) using Carterra LSA. Purified anti-MerTK antibodies were immobilized in duplicate on a HC30M chip (Carterra) by amine coupling, following the manufacturer's instructions (described previously).
(§3) Supernatants containing the constructs were diluted 1:1 with running buffer containing 0.5 mg/mL BSA (HBS-TE, Carterra; BSA, Sigma) and injected over the immobilized antibodies. The surface was regenerated with 10 mM Glycine pH2.0 after each construct injection. Sensorgrams were analyzed using Carterra Epitope software to identify patterns of construct binding. Loss of binding to MerTK constructs with domains deleted or swapped in from Axl and/or gain of binding to Axl constructs with MerTK domains swapped in were evaluated. Data from these studies were used to construct a domain binding map for anti-MerTK antibodies and their binding to various domains of human MerTK.

[3] = biological target: T3, endogenous murine MerTK on bone marrow-derived macrophages (mouse, UniProt Q60805 19-994); test: FACS, mouse BMDM, WT minus MerTK KO
T3 construct: whole, on cells; MFI on MerTK KO BMDM subtracted; also called BMDM WT-KO
T3 sequence (looked up): T1 sequence (looked up)
Description: as §1
To confirm anti-MerTK antibody binding to endogenous murine MerTK, bone marrow-derived macrophages (BMDM) were isolated from MerTK wild type (WT) and knockout (KO) mice (The Jackson Laboratory, Cat #011122) using standard protocols. Briefly, cells isolated from the bone marrow were plated in the presence of 50 ng/ml M-CSF (R&D Systems, Cat #416-ML) for seven days to allow for differentiation into macrophages. Cell staining, FACs, and MFI were performed and calculated as described above.

[4] = biological target: T4, MerTK N-terminal ECD Half-and-half chimera (human); test: SPR, construct supernatant over immobilised Ab
T4 construct: tested as culture supernatant; also called MerTK N-term half-and-half chimera; MerTK N-terminal ECD (NT-Ig1-Ig2) + Axl C-terminal ECD (FN1-FN2-JM)
T4 chain: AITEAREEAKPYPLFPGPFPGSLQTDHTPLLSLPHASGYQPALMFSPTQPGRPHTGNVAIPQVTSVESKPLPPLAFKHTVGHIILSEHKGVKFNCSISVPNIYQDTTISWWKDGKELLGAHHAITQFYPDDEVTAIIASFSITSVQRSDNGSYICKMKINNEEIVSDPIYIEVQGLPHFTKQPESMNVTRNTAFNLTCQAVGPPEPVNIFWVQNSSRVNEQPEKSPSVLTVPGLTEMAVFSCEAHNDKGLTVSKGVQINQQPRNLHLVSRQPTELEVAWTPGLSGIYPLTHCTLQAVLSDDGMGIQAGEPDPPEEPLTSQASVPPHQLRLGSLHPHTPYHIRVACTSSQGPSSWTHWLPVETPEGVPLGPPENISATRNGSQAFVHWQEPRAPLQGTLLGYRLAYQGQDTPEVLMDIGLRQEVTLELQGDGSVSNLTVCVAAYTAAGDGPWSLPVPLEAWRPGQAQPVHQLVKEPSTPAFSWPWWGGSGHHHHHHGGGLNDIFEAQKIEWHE
Description: as §2, §3

[5] = biological target: T5, recombinant murine MerTK extracellular domain (mouse, UniProt Q60805 19-497); test: SPR Carterra LSA, Ab immobilised
T5 construct: also called Mouse MerTK; murine MerTK ECD; not shown: polyHis or TEVS/Thrombin/murine IgG2a-Fc tag
T5 sequence: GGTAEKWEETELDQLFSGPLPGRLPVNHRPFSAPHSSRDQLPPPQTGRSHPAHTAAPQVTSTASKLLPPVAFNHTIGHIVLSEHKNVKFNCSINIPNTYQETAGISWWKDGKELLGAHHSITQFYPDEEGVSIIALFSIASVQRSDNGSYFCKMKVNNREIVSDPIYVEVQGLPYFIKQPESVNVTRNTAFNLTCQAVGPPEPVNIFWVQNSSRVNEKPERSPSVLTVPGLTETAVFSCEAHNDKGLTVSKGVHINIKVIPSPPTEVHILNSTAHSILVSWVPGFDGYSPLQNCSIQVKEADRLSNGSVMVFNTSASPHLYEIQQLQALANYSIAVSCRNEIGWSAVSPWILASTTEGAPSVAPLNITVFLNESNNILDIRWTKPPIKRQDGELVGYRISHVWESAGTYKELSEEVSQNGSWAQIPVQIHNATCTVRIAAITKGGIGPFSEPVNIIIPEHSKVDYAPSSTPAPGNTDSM
Description: Binding kinetics of anti-MerTK IgG1 antibodies of the present disclosure to human, cyno, and murine MerTK were evaluated using a Carterra LSA instrument (Carterra, Salt Lake City, UT). […] A HC200M sensor chip (Carterra) was activated using the single channel flow cell with a 7-minute injection of a 1:1:1 mixture of 100 mM MES pH 5.5, 100 mM sulfo-NHS, 400 mM EDC (all reconstituted in MES pH 5.5; 100 μl of each mixed in vial immediately before running assay). After switching to the multi-channel array flow cell, the antibodies were injected over the activated chip in three 96-spot arrays for 10 minutes each. The remaining unconjugated active groups on the chip were then blocked by injecting 1M Ethanolamine pH 8.5 (Carterra) for 7 minutes using the single channel flow cell. The resulting sensor chip contained three spots for each antibody, at three different densities. Two independent experiments were performed as follows, resulting in an N of between one and six determinations for each antibody. Spots that yielded less than 25 RU of analyte binding were excluded from further analysis.
After priming with running buffer (HBS-TE, Carterra) with 0.5 mg/ml BSA (Sigma), the immobilized anti-MerTK antibodies were tested for their ability to bind to several forms of recombinant MerTK extracellular domain, including human, cynomolgus, and mouse orthologs as described above. Estimates of affinity were generated by injecting each analyte over the entire antibody array using the single channel flow cell. MerTK analytes were diluted with running buffer, in a series of six, three-fold serial dilutions starting from 1 μM for human and cynomolgus MerTK, and 600 nM for mouse MerTK. Analytes were injected for 5 minutes, and dissociation was followed for 10 minutes. After each analyte injection, antibodies were regenerated with either Protein A/G Elution Buffer (Thermo) with 1M NaCl (Teknova), or with 10 mM Glycine pH 2.5. Three buffer blanks were run between each series (one species per series). Data were processed and analyzed using NextGenKIT high-throughput kinetics analysis software (Carterra).

[6] = biological target: T6, His tag-conjugated recombinant ProS (human, UniProt P07225 42-676, limits assumed); test: ELISA, captured Ab, ProS-His 10 ug/ml, no MerTK
T6 construct: bought; also called Protein S; ProS1 (R&D systems, Cat #9489-PS-100)
T6 sequence (looked up): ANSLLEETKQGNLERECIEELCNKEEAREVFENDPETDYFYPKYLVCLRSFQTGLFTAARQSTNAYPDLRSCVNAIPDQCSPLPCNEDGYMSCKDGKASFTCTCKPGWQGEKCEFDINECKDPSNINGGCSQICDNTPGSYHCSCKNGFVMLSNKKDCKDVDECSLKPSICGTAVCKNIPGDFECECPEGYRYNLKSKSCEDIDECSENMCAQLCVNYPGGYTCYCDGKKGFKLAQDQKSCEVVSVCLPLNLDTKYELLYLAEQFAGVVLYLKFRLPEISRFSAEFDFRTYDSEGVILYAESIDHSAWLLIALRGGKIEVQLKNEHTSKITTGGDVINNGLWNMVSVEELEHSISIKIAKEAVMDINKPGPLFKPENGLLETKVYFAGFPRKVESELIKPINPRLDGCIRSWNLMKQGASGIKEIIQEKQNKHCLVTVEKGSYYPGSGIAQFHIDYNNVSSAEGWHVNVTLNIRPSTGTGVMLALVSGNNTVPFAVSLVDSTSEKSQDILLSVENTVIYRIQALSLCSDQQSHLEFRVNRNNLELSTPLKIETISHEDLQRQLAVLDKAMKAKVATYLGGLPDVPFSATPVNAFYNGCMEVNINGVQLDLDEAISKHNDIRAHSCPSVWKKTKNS

- MFI [1]: 240 MFI
- binding result [2]: no binding
- MFI [3]: 737 MFI
- binding result [4]: no binding
B1: MTK-205 (antibody, human IgG1, V domains shown)
VH: EVQLQQSGPELVKPGASVKISCKTSGYTFTEYIMHWVKQSHGKSLEWIGGINPNNLGIIYNQKFKGKATLTVDKSSSTAYMELRSLTSEDSEVYYCARDGYFGFDYWGQGTTLKVSS
VL: DIVMTQSHKFMSTSVGDRVSITCKASQDVGTSVAWYQQKPGHSPKLLIYWTSTRRTGVPDRFTGSGSGTDFTLTISNVQSEDLADYFCHQYNSYPLTFGAGTKLELK

- binding result [2]: no binding
- binding result [4]: no binding
B2: MTK-217 (antibody, human IgG1, V domains shown)
VH: QVQLQQPGTEVVKPGASVKMSCRASGYTFTSYWITWVKQRPGQGLEWIGDIHPGSGINNYNEKFRSKATLTVDTSSSTVYMELSSLTSEDSAVYYCAKGGYYGSSYYVMDYWGQGTSVTVSS
VL: DILLTQSPAILSVSPGERVSFSCRASQTIGTSIHWYQQRTNDSPRLLIKYASESISGIPSRFSGSGSGTDFTLSINSVESEDIADYYCQQSNDWPYTFGGGTKLEIK
- binding result [5]: no binding (tested: analyte up to 600 nM)

- MFI [3]: 412 MFI
- binding result [6]: binds
B3: MTK-232 (antibody, human IgG1, V domains shown)
VH: EVQLQESGPSLVKPSQTLSLTCSVTGDSITSGYWNWIRKFPGNKLEYMGYINYSGSTNYNPSLKSRISITRDTSKNQYYLQLNSVTTEDTATYYCARWNYLYYFDYWGQGTTLTVSS
VL: DSVMTQSHKFMSTLVGDRVSITCKASQDVGTAVAWYQQKPGQSPKVLIYWASTRHTGVPDRFTGSGSGTDFTLTITNVQSEDLADYFCHQYSTYPYTFGGGTKLEIK
- binding result [5]: no binding (tested: analyte up to 600 nM)
